Series [1] concerns the target T1, apicoplast tryptophanyl-tRNA synthetase (TrpRS^api, PF3D7_1251700) (Plasmodium falciparum, UniProt A0A144A140).
T1 sequence (A0A144A140 61-559): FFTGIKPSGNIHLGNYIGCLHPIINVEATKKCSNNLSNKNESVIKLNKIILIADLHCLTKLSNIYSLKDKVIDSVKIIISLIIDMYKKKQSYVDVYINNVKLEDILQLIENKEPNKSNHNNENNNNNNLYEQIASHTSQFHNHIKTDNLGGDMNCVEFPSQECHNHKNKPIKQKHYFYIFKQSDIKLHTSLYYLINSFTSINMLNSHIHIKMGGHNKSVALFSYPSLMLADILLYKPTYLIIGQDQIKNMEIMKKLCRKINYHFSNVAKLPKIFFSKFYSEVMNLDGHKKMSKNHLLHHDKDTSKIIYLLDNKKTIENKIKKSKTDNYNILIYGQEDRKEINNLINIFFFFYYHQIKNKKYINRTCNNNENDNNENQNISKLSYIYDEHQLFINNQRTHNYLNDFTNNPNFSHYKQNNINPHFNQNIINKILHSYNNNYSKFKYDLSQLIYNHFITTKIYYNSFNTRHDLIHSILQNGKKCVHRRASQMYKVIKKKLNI
The series is described as follows: radiolabelled tryptophan tRNA aminoacylation assay with purified recombinant enzyme, […] indolmycin. In kind it is biochemical.

Substrate in series [2]: N[C@@H](Cc1c[nH]c2ccccc12)C(=O)O
In words: steady-state aminoacylation kinetics with purified enzyme (apparent Km). Format: biochemical, Plasmodium falciparum. The conditions noted are these: ATP, Mg2+.

Substrate in series [3]: Nc1ncnc2c1ncn2[C@@H]1O[C@H](COP(=O)(O)OP(=O)(O)OP(=O)(O)O)[C@@H](O)[C@H]1O
Described as above. In kind it is biochemical, Plasmodium falciparum. The conditions noted are these: Mg2+.

For orientation: Km means the substrate concentration at which the rate is half of its maximum. As usually defined, the Vmax is the top rate of the reaction or transport when substrate is in excess.

`CNC1=NC(=O)[C@H]([C@H](C)c2c[nH]c3ccccc23)O1` [indolmycin]: the “radiolabelled tryptophan tRNA aminoacylation assay with purified recombinant enz” value in series [1] is “at higher concentrations of indolmycin, tRNA^trp formation by TrpRS^api was reduced to background levels”.

B1: apicoplast tryptophanyl-tRNA synthetase (TrpRS^api, PF3D7_1251700) (Plasmodium falciparum 3D7) (protein)
chain: T1 sequence (A0A144A140 61-559)
In the case of B1, in series [2], the Km stood at 5.3 ± 1.2 µM and the Vmax came out at 0.029 µmol/min.

B2: cytosolic tryptophanyl-tRNA synthetase (TrpRS^cyt, PF3D7_1336900) (Plasmodium falciparum 3D7) (protein)
chain: KDVTPWDVNINNEEGINYNKLIKEFGCSKITENHIKRIEKLTNSKAHHFIRRGIFFSHRDLDFLLNYYEQHKCFYIYTGRGPSSLSMHLGHLIPFYFCKYLQEAFNVPLVIQLSDDEKYLFNQNYSLEYINTLTNENVKDIISVGLNPELTFIFKNTEYAGYLYPTVLSIHKKTTLNQSMNVFGFNHSDNIGKISYPSFQIAPCFSQCFPNFLGKNIPCLVPQGIDQDPYFRLSRDIAVKMALHKPVVVHSVFMPGLQGVNSKMSSTKKKKDDNGKSNSTFDHNNSVIFLTDTPEQIKNKINKYAFSGGGTTIQEHREKGGNLDKDISYQYLRYLLEDDNKLNEIGEKYKKGEMLSGEIKKILIDVLTELVLKHQEKKKSLTDEEISYFFDPNKPSLQKFKNM
As to B2, in series [3], the Michaelis constant (Km) came out at 622 ± 0.3 µM and the Vmax was 0.292 µmol/min. Further, in series [2], the Km was found to be 15.6 ± 0.6 µM and the Vmax was found to be 0.077 µmol/min.

For the origin of these results see article PMC4899734, “Selective inhibition of apicoplast tryptophanyl-tRNA synthetase causes delayed death in Plasmodium falciparum” (Scientific Reports, 2016).
